T1: hiR2-FL-WT-FLAG (human, UniProt Q6PJF5 1-856)
T1 construct: on MEF-DKO cells
T1 sequence: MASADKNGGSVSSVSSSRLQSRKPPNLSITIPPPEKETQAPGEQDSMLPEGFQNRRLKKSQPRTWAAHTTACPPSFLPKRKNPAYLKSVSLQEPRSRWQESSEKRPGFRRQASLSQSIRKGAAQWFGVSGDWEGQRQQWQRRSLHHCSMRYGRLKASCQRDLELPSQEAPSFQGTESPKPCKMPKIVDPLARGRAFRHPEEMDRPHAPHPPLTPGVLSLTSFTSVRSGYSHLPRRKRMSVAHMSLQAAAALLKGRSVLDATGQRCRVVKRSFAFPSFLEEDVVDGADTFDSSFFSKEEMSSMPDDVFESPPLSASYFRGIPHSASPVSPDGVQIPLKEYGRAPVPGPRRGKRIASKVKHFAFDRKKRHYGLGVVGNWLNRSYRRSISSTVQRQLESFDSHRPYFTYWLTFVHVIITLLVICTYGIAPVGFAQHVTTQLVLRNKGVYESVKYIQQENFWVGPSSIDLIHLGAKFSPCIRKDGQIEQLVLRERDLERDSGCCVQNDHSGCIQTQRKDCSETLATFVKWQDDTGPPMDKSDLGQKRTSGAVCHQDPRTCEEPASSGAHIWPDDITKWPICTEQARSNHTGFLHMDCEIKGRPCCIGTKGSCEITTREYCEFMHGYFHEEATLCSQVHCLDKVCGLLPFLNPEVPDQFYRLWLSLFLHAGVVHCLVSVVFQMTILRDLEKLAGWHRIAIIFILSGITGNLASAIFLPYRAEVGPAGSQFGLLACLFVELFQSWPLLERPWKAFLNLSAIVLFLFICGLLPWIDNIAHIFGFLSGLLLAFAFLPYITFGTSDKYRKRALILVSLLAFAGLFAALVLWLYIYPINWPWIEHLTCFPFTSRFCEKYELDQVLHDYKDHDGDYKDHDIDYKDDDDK

T2: hiR2-FL-S537E-T7 (human, UniProt Q6PJF5 1-856)
T2 sequence: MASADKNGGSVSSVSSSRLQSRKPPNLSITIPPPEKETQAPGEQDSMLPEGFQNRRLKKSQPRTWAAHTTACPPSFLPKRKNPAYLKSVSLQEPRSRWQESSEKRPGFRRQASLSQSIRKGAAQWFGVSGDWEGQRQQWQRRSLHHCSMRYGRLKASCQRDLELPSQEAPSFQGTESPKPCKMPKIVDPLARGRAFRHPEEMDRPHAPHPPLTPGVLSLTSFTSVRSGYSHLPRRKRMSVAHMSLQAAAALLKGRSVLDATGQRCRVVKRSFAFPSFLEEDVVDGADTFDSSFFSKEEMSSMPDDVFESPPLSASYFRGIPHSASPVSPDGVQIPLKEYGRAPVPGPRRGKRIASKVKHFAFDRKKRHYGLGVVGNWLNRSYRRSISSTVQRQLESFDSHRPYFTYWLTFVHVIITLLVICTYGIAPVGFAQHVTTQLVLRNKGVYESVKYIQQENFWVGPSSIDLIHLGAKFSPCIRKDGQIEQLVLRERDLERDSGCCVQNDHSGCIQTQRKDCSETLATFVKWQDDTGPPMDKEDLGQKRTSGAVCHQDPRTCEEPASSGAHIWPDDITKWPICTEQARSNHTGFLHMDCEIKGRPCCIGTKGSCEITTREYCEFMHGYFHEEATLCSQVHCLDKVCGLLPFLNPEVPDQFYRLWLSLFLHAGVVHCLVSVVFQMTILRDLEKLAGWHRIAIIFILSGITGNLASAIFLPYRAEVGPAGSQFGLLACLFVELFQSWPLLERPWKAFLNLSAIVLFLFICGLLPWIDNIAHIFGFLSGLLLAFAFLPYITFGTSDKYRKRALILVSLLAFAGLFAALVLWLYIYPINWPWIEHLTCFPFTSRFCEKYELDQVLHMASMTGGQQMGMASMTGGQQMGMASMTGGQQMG


Tests used:
[1] = target: T1, hiR2-FL-WT-FLAG; test: FACS, MEF-DKO-hiR2-FL-WT-FLAG cells, 3 µg/ml
Experimental: In brief, immortalized MEF-DKO-EV control cells, MEF-DKO-hiR2-FL-WT-FLAG cells and MEF-DKO-miR2-FL-WT-FLAG cells were harvested with 10 mM EDTA in PBS, washed and resuspended in FACS buffer (PBS, 3% FBS, 0.05% sodium azide), and seeded in Nunc U-bottom 96-well plates (Thermo Fisher Scientific, USA) at approximately 3×10⁵ cells per well. To pellet cells and remove supernatants, the plates were centrifuged at 1,500 rpm and 4° C. for 3 minutes. For primary staining, cells were resuspended in 100 μl per well of either FACS buffer alone (controls), mouse monoclonal anti-FLAG IgG (Sigma-Aldrich, USA) at 3 μg/ml FACS buffer or the antibodies of the invention also at 3 μg/ml FACS buffer and incubated on ice for 1 hour. Afterwards, plates were centrifuged at 1,500 rpm and 4° C. for 3 minutes and washed twice with 200 μl per well of FACS buffer. For secondary staining, cells were spun down and resuspended in 100 μl per well of PE-conjugated goat anti-mouse IgG F(ab′)2 detection fragment (Dianova, Germany) diluted 1:100 in FACS buffer. Protected from light, the cell suspensions were incubated on ice for 1 hour. Plates were then centrifuged at 1,500 rpm and 4° C. for 3 minutes and washed three times with 200 μl per well of FACS buffer. Finally, cells were resuspended in 150 μl per well of FACS buffer and analyzed using a BD Accuri™ C6 Plus flow cytometer (Becton Dickinson, Germany).

[2] = target: T2, hiR2-FL-S537E-T7; test: FACS on MEF-DKO cells

Row | Binder | binding result [1] | binding result [2]
1 | antibody 47 (antibody, V domains shown, mouse IgG, kappa light chain; also called clone #47) VH: QVQLQQSGAELVRPGTSVKVSCKASGYAFTNYLIEWVKQRPGQGLEWIGVINPGSGFTNYNEKFKGKAILNADKSSSTAYMQLISLTSEDSAVYFCARDLKRAMDHWGQGTSVTVSS VL: DIQMTQSPASQSASLGESVTITCLASQTIGTWLAWYQQKPGKSPQLLIHAATSLADGVPSRFSGSGSGTKFSFKISSLQAEDFVSYYCQQIYSSPYTFGGGTKLEIK | binds | 
2 | antibody 5 (antibody, V domains shown, mouse IgG, kappa light chain; also called clone #5; purified antibody 5) VH: QVTLKESGPGILQPSQTLSLTCSFSGFSLSTFGMGVGWIRQPSGKGLEWLAHIWWDDEKYYNSALKSRLTISKATSKNQAFLKIANVDTADTATYYCARISNYGSNYWYFNVWGTGTTVTVSS VL: QVVLTQSPALMSASPGEKVTMTCSAGSSVSCMYWYQQKPGSSPRVLIYDTSNLASGVPARFTGSGSGTSYSLTISRMEAEDAASYYCQQWNSYPLTFGAGTKLELK |  | no binding (tested: 3 µg/ml)
3 | antibody 51 (antibody, V domains shown, mouse IgG, kappa light chain; also called clone #51) VH: QVQLQQSGAELVKPGASVKISCKASGYTFSNYWMNWVKQRPGKGLEWIGQIYPGDGDTKYNGKFKNKATLTADKSSSTAYMQFSSLTSEDSAVYFCARGDLVFVYWGLGTLVTVSA VL: DVQITQSPSYLAVSPGETITINCRASKNIRKYLAWYQEKPGKTNKLLIYSGSTSQSGVPSRFSGSGSGTDFTLTISSLEPEDFAMYYCQQHNEYPYTFGGGTKLEIK | binds | 
4 | antibody 34 (antibody, V domains shown, mouse IgG, kappa light chain; also called clone #34; purified antibody 34) VH: QVTLKESGPGILQPSQTLSLTCSFSGFSLSTFSLGVGWIRQSSGKGLEWLAHIWWDDEKYYNPALKSRLTISKDTSKNQVFLKIANVDAADTATYYCARAYYSKSYYALDYWGQGTSVTVSS VL: DIQMTQSPSSLSASLGERVSLTCRASQEISGYLSWLQQKPDGTIKRLIYAASTLDSGVPKRFSGSRSGSDYSLAISSLESEDFADYYCLQYANFPFTFGSGTKLEIK |  | no binding (tested: 3 µg/ml)

— patent US20240287172A1 (SCIRHOM, published 2024)
